From paper PMC10653854 (mBio, 2023) come the findings set out here.

“And” between values parts separate entries of the source, which are not always exact repeats. Identical values can stand only once.

By stoichiometry N is commonly meant a count of units in the complex or per binding partner. Usually Kd stands for the constant that tells how readily two partners part at equilibrium. For orientation: koff means the first-order rate constant of dissociation. A high value points to fast dissociation. What is called kon is the rate constant with which the complex forms. High values mean fast association, low ones slow association.

Holding throughout (settings): both partners purified
Assay [1] deals with T1, yellow fever virus (YFV) strain Asibi soluble E ectodomain (sE) (yellow fever virus, strain Asibi). In words: ITC. (In general: ITC needs no label: the signal is the heat of the interaction.)
Assay [2] concerns the target T1, yellow fever virus (YFV) strain Asibi …. In words: SPR; pH 6; pr injected over immobilized sE; Biacore T200, 25°C. (In general: SPR reads the build-up and loss of mass on a sensor chip optically.)
For assay [3] the target is unchanged. Description: SPR; pH 8; pr injected over immobilized sE; Biacore T200, 25°C.

B1: recombinant purified yellow fever virus (YFV) pr protein (natural protein)
chain: not shown
As to B1, in assay [1], the dH was -16.6 kcal/mol and -16.3 kcal/mol; the “stoichiometry N” value amounted to 0.9. In assay [2], the Kd came out at 6.2 nM, the koff was 0.00236 s⁻¹ and the kon worked out at 380000 M⁻¹ s⁻¹. In assay [3], this molecule registered a Kd of 19.7 nM, a koff of 0.00134 s⁻¹ and a kon of 70000 M⁻¹ s⁻¹.
